Laboratory results published in the supplement of paper PMC6755084.

Each sequence was assayed on F1*sub RNA substrate (template-directed ligation) (assay: fraction ligated after 30 min (ligated reads / total reads); higher = more ligase activity; sequences stand for … in GAGACCGCAACTGAAAAGTTGT…AGTTCTGCACGTAGAAGCAAAAGGC). Conditions: 42 °C.
Procedure, shortened: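 The ligase ribozyme variants were produced by PCR amplification of oligo-pool templates, T7 transcription and purification on gel. Their ligated and unligated forms were gel-separated, then reverse transcribed with barcoded primers before MiSeq sequencing. Core bases were filtered at a quality of ≥20, and fraction ligated per variant was ligated reads over total reads.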

Sequence | fraction ligated
TATCACTTGTCGAAGACCTTTGGATGGTTGA [3d1947] | 0.299
TATCCTTGTCGTAAACACTTTGGATGGGTTA [3d1063] | 0.416
TATCACTTGTCTAAACATTTGGATGGGTTGA [3d1838] | 0.841
ATCACTTGTCGTAAGAACTTTGATGGGTTGA [3d233] | 0.533
TATCACTGTCGAAGACACTTTGGTGGGTTGA [3d1380] | 0.369
TATCACTTGTCGAAGACACTTTGGAGGTTGA [3d1974] | 0.0837
TATCACTTGCGTAAGACACTTTGATGGGTTG [3d1693] | 0.725
ATCCTTGTCGTAAACACTTTGGATGGGTTGA [3d74] | 0.789
TATCATTGTCAAGACACTTTGGATGGGTTGA [3d1187] | 0.783
TATCCTTGTCGTAAGACACTTTGGATGGGTTA [2d107] | 0.401
TATCACTTGTCTAACACTTTGGATGGGTTGA [3d1824] | 0.8
TACACTTGTCGTAAGAACTTTGATGGGTTGA [3d694] | 0.00588
TATCACTTTCGTAAGAACTTTGGATGGGTTG [3d1546] | 0.868
TATCACTTGTCGTAAGACACTTTGTGGGTTGA [2d284] | 0.0141
TATCACTTGTCGTAAGAATTTGGATGGGTTGA [2d254] | 0.8
ATCACTTGTCGTAAGACACTTTGGAGGGTTG [3d272] | 0.094
TATCACTTGTCGTAGACACTTTGGATGGTTGA [2d231] | 0.678
ATCACTTGTCGTAAACACTTTGGATGGGTTG [3d220] | 0.75
TATCACTTGCGTAAGACTTTGGATGGGTTGA [3d1649] | 0.849

Sequence | fraction ligated
TATCACTGTCTAAACACTTTGGATGGGTTGA [3d1360] | 0.816
TATCACTTGTCGTAAGACATTTGGATGGTTA [3d2227] | 0.0433
TATCTTGTCGTAGACACTTTGGATGGGTTGA [3d745] | 0.819
TATCACTTGCGTAGAACTTTGGATGGGTTGA [3d1629] | 0.862
TATCACTTGCGTAAGACACTTTGGTGGGTTA [3d1696] | 0.0753
ATCATTGTCGTAAGCACTTTGGATGGGTTGA [3d94] | 0.727
TATCCTGTCGTAAGACACTTTGGATGGGTTG [3d967] | 0.76
TACACTTGTCGTAAGAACTTTGGATGGTTGA [3d697] | 0.0122
ATCACTTGTCGAAACACTTTGGATGGGTTGA [3d186] | 0.784
TATACTTGTCGTAAGAACTTTGGTGGGTTGA [3d906] | 0.0323
TTACTGTCGTAAGACACTTTGGATGGGTTGA [3d279] | 0.226
TATCACTTGTCGAAGACACTTGGAGGGTTGA [3d1960] | 0.0758
TTCACTGTCGTAAGACACTTTGGATGGGTTA [3d353] | 0.195
TACACTTGTCTAAGACATTTGGATGGGTTGA [3d638] | 0.457
TTCACTTGTCGTAAGACACTTTGGAGGGTTG [3d503] | 0.103
TATCACTGTCGTAAGACATTTGGAGGGTTGA [3d1436] | 0.431
TATCACTTGTCAAGACACTTTGGATGGTTGA [3d1820] | 0.288
TATCACTGTCGTAAGCACTTTGATGGGTTGA [3d1412] | 0.686
TATCATTGTCGTAAGACACTTTGATGGTTGA [3d1279] | 0.027

Sequence | fraction ligated
TCACTTGTCTAAGACACTTTGGATGGGTTGA [3d9] | 0.768
TACACTTGTCGTAAGACACTTTGGATGGGTT [3d736] | 0.00884
ATCACTTGTCGAAGACACTTTGGATGGGTTG [3d197] | 0.795
TTCACTTGCGTAAGACACTTTGGAGGGTTGA [3d383] | 0.0421
TATCACTTGCTAAGAACTTTGGATGGGTTGA [3d1603] | 0.831
TTCACTTTCGTAAGACCTTTGGATGGGTTGA [3d362] | 0.437
TACACTTGTCGTAAGACACTGGATGGGTTGA [3d714] | 0.191
TATACTTGCGTAAGACACTTTGGATGGTTGA [3d825] | 0.0234
TATCACTTGTCGTAAACACTTTGATGGGTTA [3d2092] | 0.0833
ATCACTTGTGTAAGACACTTTGGAGGGTTGA [3d167] | 0.116
TATCACTTTCGTAAGACACTTTGGATGGGTTG [2d162] | 0.777
TATCACTTTCGTAAGACACTTTGGATGGGTTGA [1d8] | 0.815
TATCACTTGTCGTAAGACATTTGGGGGTTGA [3d2220] | 0.0157
TAACTTGTCGTAAGACACTTTGGAGGGTTGA [3d524] | 0.0881
TATCACTTGTCTAAGCACTTTGGATGGGTTA [3d1854] | 0.712
TATCATTGCGTAAACACTTTGGATGGGTTGA [3d1160] | 0.814
TATCACTGTCGAAGACATTTGGATGGGTTGA [3d1377] | 0.841
TATACTTGTGTAAGACACTTTGATGGGTTGA [3d837] | 0.81
